Source: US20060121580A1 (CRUCELL HOLLAND B V, published 2006)
Changes are numbered by the printed parent chain.

B1: human monoclonal anti-SARS-CoV antibody 03-006 (antibody, V domains shown)
VH: EVQLVESGGGLVQPGGSLRLSCAASGFTFSGYPMHWVRQAPGKGLEWVAVISYDGSNKYYADSVKGRFTISRDNSKNTLYLQMNSLRAEDTAVYYCAKDGSPRTPSFDYWGQGTLVTVSS
VL: DIQMTQSPHSLSASVGDRVTITCRASQGISNYLAWYQQKPGKVPKLLIYAASTLQSGVPSRFSGSGSGTDFTLTISSLQPEDVGVYYCQQRFRTPVTFGQGTKLEIKR
B2: human monoclonal anti-SARS-CoV antibody 03-015 (antibody, V domains shown)
VH: EVQLVESGGGVVRPGGSLRLSCAASGFTFDDYGMSWVRQAPGKGLEWVSGINWNGGSTGYADSVKGRFTISRDNAKNSLYLQMNSLRAEDTAVYYCARGLSLRPWGQGTLVTVSS
VL: SSELTQDPAESVALGQTVRITCQGDSLRSYYASWYQQKPGQAPVLVIYGKNNRPSGIPDRFSGSSSGNTASLTITGAQAEDEADYYCNSRDSSGNHVVFGGGTKLTVLG
B3: human monoclonal anti-SARS-CoV antibody 03-009 (antibody, V domains shown)
VH: EVQLVESGGGVVQPGRSLRLSCAASGFTFSDYPMNWVRQAPGKGLEWVSSISGSGGSTYYADSVKGRFTISRDNSKNTLYLQMNSLRAEDTAVYYCAKGLFMVTTYAFDYWGQGTLVTVSS
VL: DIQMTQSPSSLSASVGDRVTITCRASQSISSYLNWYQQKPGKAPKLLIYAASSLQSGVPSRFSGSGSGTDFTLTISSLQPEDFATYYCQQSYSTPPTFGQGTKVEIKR
B4: human monoclonal anti-SARS-CoV antibody 03-001 (antibody, V domains shown)
VH: EVQLVESGGGLVKPGGSLRLSCAASGFTFSGYSMNWVRQAPGKGLEWVSSISGGSTYYADSRKGRFTISRDNSKNTLYLQMNNLRAEDTAVYYCARHRFRHVFDYWGQGTLVTVSS
VL: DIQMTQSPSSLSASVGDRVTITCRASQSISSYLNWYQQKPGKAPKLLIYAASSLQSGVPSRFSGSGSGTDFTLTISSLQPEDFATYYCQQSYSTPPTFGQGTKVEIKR
B5: human monoclonal anti-SARS-CoV antibody 03-013 (antibody, V domains shown)
VH: EVQLVESGGGLVQPGGSLRLSCAASGFTFSDHYMDWVRQAPGKGLEWVGRTRNKANSYTTEYAASVKGRFTISRDDSKNSLYLQMNSLKTEDTAVYYCAKGLTPLYFDYWGQGTLVTVSS
VL: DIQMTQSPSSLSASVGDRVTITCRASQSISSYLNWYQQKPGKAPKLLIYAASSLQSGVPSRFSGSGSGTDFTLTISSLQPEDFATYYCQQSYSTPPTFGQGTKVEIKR
B6: human monoclonal anti-SARS-CoV antibody 03-014 (antibody, V domains shown)
VH: B5 VH with K100R, L102I, T103S, L105F
VL: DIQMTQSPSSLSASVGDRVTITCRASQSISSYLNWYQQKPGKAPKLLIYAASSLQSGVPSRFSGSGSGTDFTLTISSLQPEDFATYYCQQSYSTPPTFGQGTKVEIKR
B7: human monoclonal anti-SARS-CoV antibody 03-002 (antibody, V domains shown)
VH: EVQLVESGGGLVKPGGSLRLSCAASGFTFSGYSMSWVRQAPGKGLEWVGRTRNKANSYTTEYAASVKGRFTISRDDSKNSLYLQMNSLKTEDTAVYYCARYYSRSLKAFDYWGQGTLVTVSS
VL: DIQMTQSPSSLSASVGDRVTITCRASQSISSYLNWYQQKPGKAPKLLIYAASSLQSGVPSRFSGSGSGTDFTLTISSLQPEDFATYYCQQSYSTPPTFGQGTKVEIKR

Experiments:
[1] = target: S565 fragment (amino acids 1-565 of the S protein of SARS-CoV), myc-His tagged (SARS-CoV strain Frankfurt 1, UniProt P59594 14-565); experiment: IgG ELISA on captured S565
[2] = target: S318-510 fragment (amino acids 318-510 of the S protein of SARS-CoV Frankfurt 1), myc-His tagged (SARS-CoV strain Frankfurt 1, UniProt P59594 318-510); experiment: IgG ELISA on S318-510 fragment
[3] = target: full length S protein of SARS-CoV expressed on HEK293T cells (SARS-CoV strain Frankfurt 1, UniProt P59594 14-1255); experiment: flow cytometry, 10 µg/ml IgG on transfected HEK293T cells

Binder	binding result [1]	binding result [2]	binding result [3]
B1	binds	binds	binds
B2	no binding	no binding	binds
B3		no binding	
B4		no binding	
B5	binds	binds	binds
B6	binds	binds	
B7		no binding	
